Test results: paper PMC9005620, “The crystal structure of iC3b-CR3 αI reveals a modular recognition of the main opsonin iC3b by the CR3 integrin receptor” (Nature Communications, 2022)
Values belong to the molecule of their own block, whether it stands above or below them.

Legend:
iC3b (human) = assay: SPR; iC3b immobilised on a CM5 chip by maleimide coupling via Cys988; αI variants as analyte, 5 injections at 0.32-26.0 μM; 10 mM HEPES-NaOH pH 7.4, 100 mM NaCl, 5 mM MgCl2; 25 °C; steady-state analysis of maximum RU, apparent KD (saturation not reached)
[1] = molecular target: CR3 αI domain (von Willebrand A inserted domain of the αM chain of CR3), residues 126-321, C128S/I316G (human) (UniProt P11215); assay: SPR; Biacore X100; CR3 αI biotinylated (NHS-PEG4-biotin) and captured on a streptavidin chip, ~900 RU; initial single-concentration injections, then 5 injections of iC3b (0.1-10.0 uM) or C3c (0.7-60.0 uM); 10 mM HEPES-NaOH pH 7.4, 100 mM NaCl, 5 mM MgCl2; 25 °C; steady-state model, saturation not reached, apparent KD
C3c = C3c (UniProt P01024 955-1303); assay: as above; conditions: both partners purified
human iC3b (human) [2] = molecular target: human iC3b (human) (UniProt P01024); assay: SPR; Biacore X100; iC3b immobilised on CM5 chip by maleimide chemistry through Cys988; αI variants as analyte (5 injections at 0.32-26.0 uM); 10 mM HEPES-NaOH pH 7.4, 100 mM NaCl, 5 mM MgCl2; 25 °C; steady-state analysis, apparent KD
human iC3b (human) [3] = molecular target: human iC3b (human) (UniProt P01024); assay: SEC + other: SAXS; iC3b mixed with CR3 αI at 1:2 molar ratio, Superdex 200 10/300 GL, 20 mM HEPES-NaOH pH 7.5, 200 mM NaCl, 5 mM MgCl2; SAXS in continuous-flow batch mode at 4 °C

Molecule: CR3 αI domain variant 1A2A (R216A/K231A/R261A/R293A) (from UniProt P11215 142-337) (domain or fragment)
Kd (iC3b (human)): 64.7 µM

Molecule: CR3 αI domain variant 2A (R216A/K231A) (from UniProt P11215 142-337) (domain or fragment)
Kd (iC3b (human)): 27.5 µM

B1: CR3 αI domain (von Willebrand A inserted domain of the αM chain of CR3), residues 126-321, C128S/I316G (domain or fragment)
chain: RGSPQEDSDIAFLIDGSGSIIPHDFRRMKEFVSTVMEQLKKSKTLFSLMQYSEEFRIHFTFKEFQNNPNPRSLVKPITQLLGRTHTATGIRKVVRELFNITNGARKNAFKILVVITDGEKFGDPLGYEDVIPEADREGVIRYVIGVGDAFRSEKSRQELNTIASKPPRDHVFQVNNFEALKTIQNQLREKGFAIEG
modifications: NHS-PEG4-biotin on random amine groups (only in the SPR where CR3 αI was captured on the streptavidin chip)
notes: Made in bacteria, so not glycosylated at Asn224; also called WT; not shown: His6, N-terminal, cleaved
Kd (C3c): ~39 µM | Kd (human iC3b (human) [2]): 7.1 µM | stoichiometry N (human iC3b (human) [3]): 1

Other lines, results leading:

Kd (iC3b (human)): 16.8 µM
Molecule: CR3 αI domain variant 1A (R261A/R293A) (from UniProt P11215 142-337) (domain or fragment)

Kd [1]: 5.2 µM
Molecule: human iC3b (from UniProt P01024 749-1303) (complex)
